# Data published in the nanobody polyreactivity screen of Harvey et al. (2022).
# Test: yeast display, Sf9 membrane polyspecificity reagent, FACS + sequencing; frameworks hold sequencing errors
# Procedure, shortened: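 Polyreactivity labels are assigned by the sorting gate from which each nanobody was recovered. The gates were low and high (top ~1%), set on anti-HA fluorescence for expression and streptavidin fluorescence for reagent binding. Before sorting, galactose-induced (36–48 hours) yeast display cells were stained for 1 hour at 4 °C with 10% biotinylated, detergent-solubilized Sf9 membrane reagent.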
row,Sequence,polyreactivity (PSR sort gate)
1,QVQLVESGGGLVQAGGSLRLSCAATGIIFTGKSMGWYRQAPGTERELVASITSGDTTNYADSVKGRFTISRDNAKNTVYLQMNSLKPEDTAVYSCAKELQVRQGGDYWGQGTQVTVSS,low polyreactivity
2,QVQLVESGGGLVQAGGSLRLSCAASGRIFRWYAMGWYRQAPGKERELVATISSTGGSTYYADSVKGRFTLSRDNAKNTVYLQMNSLKPEDTAVYYCNAVVYGIFLYAWYDYWGQGTQVTVSS,low polyreactivity
3,QVQLVESGGGLVQAGGSLRLSCAASGSIFPSNAMGWYRQAPGKERELVAGITRGGSTNYADSVKGRFTISRDNAKNTVYLQMNSLKPEDTAVYYCAADSGFDTAPYDYWGQGTQVTVSS,low polyreactivity
4,QVQLVESGGGLVQAGGSLRLSCAASGNTFPFNAMGWYRQAPGKERELVAAISRGGSTYYADSVKGRFTISRDNAKNTVYLQMNSLKPDDTAVYYCAAGYRRQGYGGYDYWGQGTQVTVSS,high polyreactivity
5,QVQLVESGGGLVQAGGSLRLSCAASGSIFREYVMGWYRQAPGKEREFVAAISVSGGSTNYADSVKGRFTISRDNAKNTVYLQMNSLKPEDTAVYYCNADGVLTGYSRGGWYYWGQGTQVTVSS,low polyreactivity
6,QVQLVESGGGLVQAGGSLRLSCAASGRTFVDYDMGWYRQAPGKERELVADINSGGSTYYADSVKGRFTISRDNAKNTVYLQMNRLKPEDTAVYYCAADDGWGYISSYDYEYWGQGTQVTVSS,high polyreactivity
7,QVQLVESGGGLVQAGGSLRLSCAASGFTFYYYAMGWYRQAPGKERELVAAITSSGDSTFYADSVKGRFTISRDNAKNTVSLQMNSLKPEDTAVYYCAADRFQGRDDYWGQGTQGTVSS,high polyreactivity
8,QVQLVESGGGLVQAGGRLRLSCAASGIILYGYAMGWYRQAPGKARELVAAITWSGGSTYYADSVKGRFTISRDNAKNTVYLQMNSLKPEDTAVYYCAVDVHTSADASLPQEYDYWGQGTQVTVSS,low polyreactivity
9,QVQLVESGGGLVQAGGSLRLSCAASGFTFDYYAMGWYRQAPGKERELVAAISRAGSTNYADSVKGRFTISRDNAKNTVYLQMNSLKPEDTAVYYCNKGYHSWSRLSQFGWSYDYWGQGTQVTVSS,high polyreactivity
10,QVQLVDSGGGLVQAGGSLRLSCSASGIIFRYYTMVWYRQDPGKERELVASISRSGGNTYYADSVKGRFTISRDNAMNTVYLQMNSLKPEDTAVYYCAARRHQKYQESNYWGQGTQVTVSS,high polyreactivity
11,QVQLVESGGGLVQAGGSLRLICAATGITLGYYAMGWYRQAPGKERELVAAISYRGGNTYYADSVKGRFTISRDNAKNTVYLQMNSLKPEDTAVYYCNADLGYESGWWSKYDYWGQGTQVTVSS,low polyreactivity
12,QVQLVESGGVLVQAGGSLRLSCAASGSIFVYYGMGWYRQAPGKEREFVAAIWTGGSTYYADSVKGRFTISRDNAKNTVYLQMNSLKPEDTAVYYCAADRRGSHYYRYKYGYWGQGTQVTVSS,high polyreactivity
13,QVQLVESGGGLVQAGGSLRLSCAASGITFKSYTMGWYRQAPGKERELVAAITASGGTTRYADSVKGRFTISRDNAKNTVYLQMNSLKREDTAVYYCNALPFRYGKRRGYWGQGTQVTVSS,low polyreactivity
14,QVQLVESGGGLVQAGGSLRLSCAASGFTFYVYTMGWYRQAPGKERELVASISGGRTYYADSVKGRFTISRDNAKNTVYLQMNSLKPEDTAVYYCAAVPYPSYYDTRYDYWGPGTQVTVSS,low polyreactivity
15,QVQLVESGGGLVQAGGSLRLSCAASGSIFNYYAMGWYRQAPGKERELVAGITSVGSTYYADSVKGRFTISRDNAKNTVYLQMNSLKPEDTAVYYCAAGYWYGMYYWGQGTQVTVSS,high polyreactivity
16,QVQLVESGGGLVQAGGSLRLSCAASGSTFGFNAMGWYRQAPGKEREFVAAITRSGGSTYYADSVKGRFTISRDNAKNTVYLQMNSLKPEDTAVYYCAKRRYFYSQWVRAFDYWGQGTQVTVSS,high polyreactivity
17,QVQLVESGGGLVQAGGSLRLSCAASGRIFTVYAMGWYRQAPGKERELVAAISRGGSTYADSVKGRFTISRDNAKNTVYLQMNSLKPEDTAVYYCAAVNFRKGEDYWGQGTQVTVSS,high polyreactivity
18,QVQLVESGGGLVKAGGSLRLSCAASGRTFGVYAMGWYRQAPGKEREFVAVISWSDDSTYYADSVKGRFTISRDNAKNTVYFQMNSLKPEDSAVYYCAAQTPYGMYYWRQGTQVTVSS,low polyreactivity
19,QVQLLESGGGLVQAGGSRRLSCAASGSTFYGYAMGWYRQAPGKEREFVAAITTSGGSTYYADSVKGRFTISRDNAKNTVYLQMNSLKPEDTAVYYCAADAPSWYDRQYDYWGQGTQVTVSS,low polyreactivity
20,QVQLVESGGGLVQAGGSLRLSCAAAGRTVPRYTMGWYRQAPGKEMELVAAISRGGSTNYAYSVKGLFTISRDNAKNTVYLVMNSLKPEDTAVYYCNADYWYDWKSYDYWGEGTQVTVSS,high polyreactivity
21,QVQLVESGGGLVQAGGSLRLSCAASGRIFIVNAMGWYRQAPGKERELVAAISYRGGSTYYADSVKGRFTISRDNAKNTVYLQMNSLKPEDTAVYYCNTDGYIYRYRFDYWGQGTQVTVSS,low polyreactivity
22,QVKLVESGGGLDQAGGSLRLSCSASRSTFWHYAMGWYRQAPGKERELVASISGRGTSTYYADSVKGRFTISRDNAKNTVFFQMNSLKPEDTAVYYCAATKWFGAFDYWGQGTQVTVSS,low polyreactivity

row,Sequence,polyreactivity (PSR sort gate)
1,QDHLVESGGGLVQAGGSLRLSCAPSGSIFSYNSMGWYRQAPGKERELVAGISSDGSTNYADSVKGRFSISRDNAKNTVYLQMNSLKPEDTAVYYCAADEIVWQADLWGYGIYDYWGHGTQVTVSS,high polyreactivity
2,QVQLVESGGGLVQAGGSLRLSCAPSGSIFPSYAMGWYRQAPGKERELVAAISRSAGSTYYADSVKGRFTISRDNAKNTVYLQMNSLKPEDTAVYYCAADGYSSRYGYDYWGQGTQVTVSS,low polyreactivity
3,QVQLVESGGGLVQAGGSLRLSCAASGRTFIAYGMGWYRQAPGKERELVAAISRNGASTYYADSVKGRFTISRDNAKNTVYLQMNSLKPEDNAVYYCAAGYIRSRGGRWTHSGYWGQGTQVTVSS,high polyreactivity
4,QVQLVESGGGLVQAGGSLRLSCAASGYILYANAMGWYRQAPGKERELVASITFGDDSTYYADSVKGRFTISRDNAKNTVYLQMNSLKPEDTAVYYCNADHKVEVEDDYWGQGTQVTVSS,low polyreactivity
5,QVQLVESAGGLVQAGGSLRLSCAASGYTFPYYTMGWYRQAPGKERELVATITRRGDSTYYADSVKGRFTISRDNAKNTVYLQMNSLKPEDTAVYYCNTASYGRHQFRKSSKMDYWGQGTQVTVSS,high polyreactivity
6,QVQLVESGGGLVQAGGSLRLSCAASGSILPYYAMGWYRQAQGKERELLATITDGTDTYYADSVKGRFTISRDNAKNTVYLPMNSLKPEDTAVYYCNADGYVYYLHEDYWGQGTQVTVSS,low polyreactivity
7,QVQLVESGGGLFHAGGRLRLSCAASGYTFRYYAMGWSRQAPGKERELVAGIDSGGGSTYYAASVKGRFTISRDNAKYTVYLQMNSLKPEDTAVYYCAVDTYSWYGEYYYWGQGTQVTVSS,high polyreactivity
8,QVQLVESGGGLVQAGGSLRLSCAASGFTFRGYTIGWYRQAPGKERELVAAITWSGGSTYYADSVKGRFTISRDNAKNTVYLQMNSLKPEDTAVYYCASYAWYGYVYHHLYDYWGQGTQVTVSS,high polyreactivity
9,QVQLVESGGGLVQAGGRLRLSCAASGRTILSYAMGWYRQAPAKERELVAAITGSGGRKYYADSVKGRFTISRENAKNTVYLQMNSLKPEDTAVYYCATRWIKGRKMDYWGQGTQVTVSS,high polyreactivity
10,QVQLVESGGGLVQAGGSLRLSCAASGRIFGNNAMGWYRQAPGKVRELVAAIRSRGTRTYYADSVKGRFTISRDNAKNTVNLQMNSLKPEDPAVYYCATTSLTGLYDRYDYWGQGTQVTVSS,high polyreactivity
11,QVQLVESGGGLVQAGGSLRLSCSASGITFPDYAMGWYRQAPVKERELVATISSSGGNTYYADSVKGRFTISRDNAKNTVYLQMNSLKPEDTAVYYCATVSYYWGYDYWGQGTQVTVSS,low polyreactivity
12,QVQLLESGGGLVQEGGSLRLSCAASGSIFEWYVMGWYRQAPGKERELVDTITSDCSSNYADSVKGRFTISRDNAKNTVYLQMNSLKPEDSAVYYCARDWRWDAWTRRGNDDGYWGQGTQVTVSS,low polyreactivity
13,QVQLVESGGGLVQAGGSLRLSCAASGSIFYYNTMGWYRQAPGKEREFVATITFSGSSTYYADSVKGRFTFSRDNAKNTVYLQMNSLKPEDTAVYYCAVTLEDYTYGYWGQGTQVTVSS,low polyreactivity
14,QVQLVESGGGLVQAGGSLRLSCAASGGTIYGYAAMGWYRQAPGKERELVAAISRSGGRTYYADSVKGRFTISRDNAKNTVYLQMNSRKPEDTAVYYCAARRAYSRPPRDYWGQCTQVTVSS,high polyreactivity
15,QVQHVESGGGLVQAGGSLRLSCAASGSTFVGNAMGWYRQAPGKERELVADITSGGSTNYADSVKGRFTISRDNAKNTVYLQMNSLKPEDTAVYYCAAVYLWSQRREFWGQGTQVTVSS,low polyreactivity
16,QVQLVESGGGLVQAGGSLSLSCAASGRTLYLYTMGWYRQAPGKERELVASINWRGSTYYADSVKGRFTISRDNAKNTVYLQMNSLKPEDTAVYYCNVGGPSGGMYYWGQGTQVTVSS,low polyreactivity
17,QVQLVESGGGLVQAGGSLRLSCAASGITFRTYAMGWYRQAPGKERELVAGIRTRTGSTYYADSVKGRFTISRDNAKNTVYLQMNSLKPEDTAVYYCAAKGSGYYGRQRIYSYTYDYWGQGTQVTVSS,high polyreactivity
18,QVQLVESGGGLVQAGGSLRLSCAASGFIFWYNAMGWYRQAPGKERELVAVISTSGTITYYADSVKGRFTISRDNAKNTVYLQMNSLKPEDTAVYYCAARYYQRANGFGYWGQGTQVTVSS,low polyreactivity
19,QVQLVESGGGIVQAGCSLRLSCAASGFTFERYTMGWYRQAPGKERELVATISRRSGRTSYADSVKGRFTISRDNAKNTVYLQMNSLNPEDTAVYYCAVDDAYPDRYDYWGQGTQVTVSS,high polyreactivity
20,QVQLVESGGGLVQAGGSLRLSCAASGSIFTFYAMGWYRQAPGKERELVASITSGAGITYYADSVKGRFTISRDNAKNTVYLQMNSLKPEDTAVYYCAADWSGDFFTDGYWGQGTQVTVSS,low polyreactivity
21,QVQLVESGGGLVQAGGSLRLSCAASGSTFGRYAMGWYRQAPGKERELVAAISWSGGSTHYADSVKGRFTISRDNAKNTVYLQMNSLKPEDTAVYYCAAYTFYSYDYWGQGSQVTVSS,high polyreactivity
